Article doi:10.1101/2025.06.24.661325

Target: M. tuberculosis MmpL5 Δ494-688 with C-terminal GFP-FLAG tag (M. tuberculosis) (UniProt P9WJV1)
Experiment: cryo-EM structure

For “M. tuberculosis MmpL5 Δ494-688 with C-terminal GFP-FLAG tag (from UniProt P9WJV1 1-964) (natural protein)”, which stoichiometry N is on record?
Its stoichiometry N is 3.
